Source: the Human Domainome abundance scans (Beltran et al. 2025)
± gives the uncertainty stated by the source.

B1: POU domain, class 5, transcription factor 1, residues 134 to 212; numbered along this chain, Q01860 (parent)
chain: EESQDIKALQKELEQFAKLLKQKRITLGYTQADVGLTLGVLFGKVFSQTTICRFEALQLSFKNMCKLRPLLQKWVEEAD

Variants of: B1
Experiment: abundance fitness (aPCA) (normalised: wild type 0, dead -1); higher = more abundant; growth selection in yeast, the domain comes from the species named
Settings: Homo sapiens
Variant F42T has an abundance fitness of 0.166 ± 0.07. L67C gave an abundance fitness of -0.363 ± 0.27. For R53T, the abundance fitness was -0.356 ± 0.38. For R53A, the abundance fitness was -0.06 ± 0.21. Variant R24V has an abundance fitness of -0.068 ± 0.22. Variant R24A has an abundance fitness of -0.859 ± 0.47. Variant A17G has an abundance fitness of 0.11 ± 0.13. In the case of K11L, the abundance fitness is reported as -0.153 ± 0.1. Variant K11A has an abundance fitness of -0.201 ± 0.14. Work on K21A yielded an abundance fitness of -0.392 ± 0.19. Work on E55Q yielded an abundance fitness of -0.498 ± 0.38. In the case of E55M, the abundance fitness is reported as -0.907 ± 0.39. With E55S the abundance fitness was -0.418 ± 0.27. With E55I the abundance fitness was -0.365 ± 0.33. F46V gave an abundance fitness of 0.411 ± 0.074. F46T gave an abundance fitness of 0.025 ± 0.2. For F46G, the abundance fitness was -0.714 ± 0.16. With F46K the abundance fitness was -0.17 ± 0.3. Variant F46S has an abundance fitness of -0.553 ± 0.28. F46M gave an abundance fitness of 0.023 ± 0.17. For F46W, the abundance fitness was -0.398 ± 0.19. F46E gave an abundance fitness of -0.293 ± 0.15. Variant F46R has an abundance fitness of -0.429 ± 0.14. For F46D, the abundance fitness was 0.136 ± 0.19. In the case of A32V, the abundance fitness is reported as -0.785 ± 0.31. A32W gave an abundance fitness of -0.682 ± 0.29. Variant A32N has an abundance fitness of -0.193 ± 0.33. Work on Q48P yielded an abundance fitness of 0.097 ± 0.23. Variant Q48F has an abundance fitness of -0.343 ± 0.41. In the case of Q48G, the abundance fitness is reported as 0.24 ± 0.076. With Q48R the abundance fitness was 0.126 ± 0.1. R68L showed an abundance fitness of -0.222 ± 0.1. Work on R68V yielded an abundance fitness of -0.609 ± 0.18. With R68W the abundance fitness was 0 ± 0.11. R68A gave an abundance fitness of -0.265 ± 0.14. In the case of R68S, the abundance fitness is reported as -0.535 ± 0.25. In the case of R68Y, the abundance fitness is reported as 0.356 ± 0.19. In the case of G39D, the abundance fitness is reported as -0.852 ± 0.42. For G39K, the abundance fitness was -0.187 ± 0.24. G39S showed an abundance fitness of -0.006 ± 0.092. Work on G39W yielded an abundance fitness of -0.712 ± 0.33. For L59S, the abundance fitness was -0.453 ± 0.22. For L59G, the abundance fitness was -0.432 ± 0.11. For L59E, the abundance fitness was 0.101 ± 0.17. In the case of D79S, the abundance fitness is reported as -0.374 ± 0.22. D79E showed an abundance fitness of -0.067 ± 0.21. In the case of D79Y, the abundance fitness is reported as -0.505 ± 0.49. Work on D79V yielded an abundance fitness of 0.111 ± 0.13. For K62T, the abundance fitness was -0.055 ± 0.19. In the case of K62Q, the abundance fitness is reported as 0.046 ± 0.24. With K62L the abundance fitness was -0.579 ± 0.27. In the case of K62C, the abundance fitness is reported as -0.489 ± 0.44. With K62D the abundance fitness was 0.201 ± 0.17. K18S showed an abundance fitness of 0.192 ± 0.13. For K18R, the abundance fitness was -0.222 ± 0.099. In the case of K18L, the abundance fitness is reported as -0.091 ± 0.11. G35S showed an abundance fitness of 0.134 ± 0.14. In the case of G35A, the abundance fitness is reported as 0.266 ± 0.092. G35R gave an abundance fitness of -0.32 ± 0.17. Variant G35V has an abundance fitness of -0.743 ± 0.3. For A78I, the abundance fitness was 0.292 ± 0.24. A78S gave an abundance fitness of -0.13 ± 0.16. In the case of A78G, the abundance fitness is reported as -0.304 ± 0.12. For A78E, the abundance fitness was -0.06 ± 0.23. For A78C, the abundance fitness was -0.36 ± 0.35. Work on A78M yielded an abundance fitness of -0.033 ± 0.14. Variant V75I has an abundance fitness of 0.056 ± 0.22. In the case of V75M, the abundance fitness is reported as -0.293 ± 0.23. V75S gave an abundance fitness of -0.106 ± 0.24. T26K showed an abundance fitness of -0.414 ± 0.36. With T26L the abundance fitness was 0.004 ± 0.25. Variant T26E has an abundance fitness of 0.04 ± 0.27. T26C gave an abundance fitness of -0.059 ± 0.46. In the case of T26G, the abundance fitness is reported as 0.071 ± 0.12. Variant Q72Y has an abundance fitness of -0.582 ± 0.41. Variant Q72P has an abundance fitness of -0.438 ± 0.21. Q72C showed an abundance fitness of -0.09 ± 0.17. In the case of Q72H, the abundance fitness is reported as -0.039 ± 0.28. Work on Q72R yielded an abundance fitness of -0.309 ± 0.096. For Q72L, the abundance fitness was -0.323 ± 0.14. For Q72D, the abundance fitness was -0.379 ± 0.24. In the case of V34G, the abundance fitness is reported as -0.518 ± 0.17. Work on V34P yielded an abundance fitness of 0.101 ± 0.2.
